Data on 18 sequences can be found in the DeepSol protein solubility set.

This series in a line: soluble on expression in E. coli; label from the status in PepcDB or PDB records.
Regarding “MKTGKELKPGTVIRLENDPWLVQKAEFTKSGRNSAIMKTKLKNLLTGYKTEIVYSADDKLDDVILDRKEATLSFISGDTYTFMDTTDYTMYELNAEDIESVLPFVEEGMTDVCEAVFFDERLVSVELPTTIVRQVDYTEGSARGDTSGKVMKPAKLKNGTELSVADFIEIGDMIEIDTREGGSYKGRAKLEHHHHHH”, the “soluble on expression in E. coli” value is recorded as “not soluble”. Take “MKRAVVVFSGGQDSTTCLVQALQQYDEVHCVTFDYGQRHRAEIDVARELALKLGARAHKVLDVTLLNELAVSSLTRDSIPVPDYEPEADGIPNTFVPGRNILFLTLAAIYAYQVKAEAVITGVCETDFSGYPDCRDEFVKALNHAVSLGMAKDIRFETPLMWIDKAETWALADYYGKLDLVRNETLTCYNGIKGDGCGHCAACNLRANGLNHYLADKPTVMAAMKQKTGLR”: the “soluble on expression in E. coli” value is on record as “not soluble”. On to “MKQASAIPQPKTYGPLKNLPHLEKEQLSQSLWRIADELGPIFRFDFPGVSSVFVSGHNLVAEVCDEKRFDKNLGKGLQKVREFGGDGLFTSWTHEPNWQKAHRILLPSFSQKAMKGYHSMMLDIATQLIQKWSRLNPNEEIDVADDMTRLTLDTIGLCGFNYRFNSFYRDSQHPFITSMLRALKEAMNQSKRLGLQDKMMVKTKLQFQKDIEVMNSLVDRMIAERKANPDENIKDLLSLMLYAKDPVTGETLDDENIRYQIITFLIAGHETTSGLLSFAIYCLLTHPEKLKKAQEEADRVLTDDTPEYKQIQQLKYIRMVLNETLRLYPTAPAFSLYAKEDTVLGGEYPISKGQPVTVLIPKLHRDQNAWGPDAEDFRPERFEDPSSIPHHAYKPFGNGQRACIGMQFALQEATMVLGLVLKHFELINHTGYELKIKEALTIKPDDFKITVKPRKTAAINVQRKEQADIKAETKPKETKPKHGTPLLVLFGSNLGTAEGIAGELAAQGRQMGFTAETAPLDDYIGKLPEEGAVVIVTASYNGAPPDNAAGFVEWLKELEEGQLKGVSYAVFGCGNRSWASTYQRIPRLIDDMMKAKGASRLTAIGEGDAADDFESHRESWENRFWKETMDAFDINEIAQKEDRPSLSITFLSEATETPVAKAYGAFEGIVLENRELQTAASTRSTRHIELEIPAGKTYKEGDHIGILPKNSRELVQRVLSRFGLQSNHVIKVSGSAHMAHLPMDRPIKVVDLLSSYVELQEPASRLQLRELASYTVCPPHQKELEQLVSDDGIYKEQVLAKRLTMLDFLEDYPACEMPFERFLALLPSLKPRYYSISSSPKVHANIVSMTVGVVKASAWSGRGEYRGVASNYLAELNTGDAAACFIRTPQSGFQMPNDPETPMIMVGPGTGIAPFRGFIQARSVLKKEGSTLGEALLYFGCRRPDHDDLYREELDQAEQDGLVTIRRCYSRVENEPKGYVQHLLKQDTQKLMTLIEKGAHIYVCGDGSQMAPDVERTLRLAYEAEKAASQEESAVWLQKLQDQRRYVKDVW”, for which the “soluble on expression in E. coli” value is reported as “soluble”. On to “MAYDIFLKIDGIDGESMDDKHKNEIEVLSWRWNIHQESTMHAGSGLGSGKVSVTNLDFDHYIDRASPNLFKYCASGKHIPQAILVMRKAGGNPLEYLKYTFTDLIVAVVSPSGSHDGEIASRETVELSFSTVKQEYVVQNQQGGSGGTITAGYDFKANKEI”, for which the “soluble on expression in E. coli” value was “not soluble”. The value for “SGAAAAEADRTLFVGNLETKVTEELLFELFHQAGPVIKVKIPKDKDGKPKQFAFVNFKHEVSVPYAMNLLNGIRLYGRPIKIQFRSGSSHAPQDVSLSYPQHHVGNSSPTSTSPSRYERTMDNMTSSAQIIQRSFSSPENFQRQAVMNSALRQMSYGGKFGSSPLDQSGFSPSVQSHSHSFNQSSSSQWRQGTPSSQRKVRMNSYPYLADRHYSREQRYTDHGSDHHYRGKRDDFFYEDRNHDDWSHDYDNRRDSSRDGKWRSSRH” was “soluble”. “MSAATPLIVQQAEAEQLLARIDVLQAMRQLFLDLAAGQALQPAQQLVEFPAGRGDFINYLGVLAQEQVYGVKTSPYIVREQGPLVTAWTLLMSMQTGQPLLLCDAARLTTARTAATTAVAVDALAPAEACRLALIGSGPVAHAHLQYVKGLRDWQGVRVHSPCLDERRLQSLRAIDPRAEAAGSLEEALDEADVILLCTSSARAVIDPRQLKRPALVTSISTNAPRAHEVPAESLAAMDVYCDYRHTTPGSAGEMLIAAEQHGWSPEAIRGDLAELLSAQAPRPEYRRPAFFRSIGLGLEDVALANALYRLRQAG”: the “soluble on expression in E. coli” value was “not soluble”. As for “MRRVLVGAAALITALLVLTGCTKSISGTAVKAGGAGVPRNNNSQERYPNLLKECEVLTTDILAKTVGADPLDIQSTFVGAICRWQAANPAGLIDITRFWFEQGSLSNERKVAEGLKYQVETRAIQGVDSIVMRTGDPNGACGVASDAAGVVGWWVNPQAPGIDACGQAIKLMELTLATNA”, the “soluble on expression in E. coli” value is “soluble”. “MSEPILKVENLKKYFPVRRGFLSALRGEPQKFVKAVDGVSFEIYKQQVFALVGESGCGKTTTGKLIVKLLEPTDGKIYLEGQDVTELRTKEEIKAYRRKVQMIFQDPFSSMNPRFRIYDVLEEPLLIHGIGETRAEREELIYKALEMVKITPPEEYVGRFPHMLSGGQRQRVAIARALILNPTFVVADEPVSMLDVSIRAEILELMKELKEKMGVTYLYITHDLSTARYFADWIAVMYLGRIVEMGPAKEIIDNPLHPYTRALLAAVPEPIPERKDVIKELPIKGEVPSAVNIPSGCRFHPRCIYFKKGLCDVKQPQLIEYSHNHWVECHRVGEI”: the “soluble on expression in E. coli” value is given as “soluble”.

On to “MYKLIAIDMDGTLLNDHHEVTEEVRDALHAAKAEGVKIVLCTGRPIGGVQRYLDELNLIEEGDYVIAYNGALVQNTHTNEVVSELSLGYDDLTSLYDLSLELKTPMHFFDSSNLYTPNRDISEFTVYESYVTQVPLHFRKIDEVPKDILIPKVMFIDKPENLSRVITSIPKDVREKYTMVRSAPFFYEILHSEASKGNAVRQLAQLLGIEQAEVMCIGDNGNDLTMIEWAGCGVAMANAIPEVLEAANFQTRSNNEHGVAHAIHELVLAKLEHHHHHH”, for which the “soluble on expression in E. coli” value is reported as “soluble”.

With “MSDHENTGENTSEYQYKQPPQKSIDELLNADKEDESLKVYKAKLLGQGTVIVDEKNPLRVIVRSVELLINGKTAQSFDLSDPAKLVNSDLSVSIKEGSNYRLSFAFHVQREITSGLHYKHKVKRSGITVENEKYMMGSYAPKLEIQEYKSPNEEAPSGMMHRGKYKVYSKITDDDNNVYLDWQWTLHITKE”, the “soluble on expression in E. coli” value was “not soluble”. As to “MPEVHATALIPMLTGTNVPESEEEIDAPIYDQREVEKIRGIAHNIAENAKNPEKLMPDFMAANPGIMSTMESLKLSDFGKTSTVVPSISTSPGPIFTLANGIPAVGTPGTQSSTTVKA”, the “soluble on expression in E. coli” value was “soluble”. As for “ASPNSPKDNTWIQAASLTWLMDMSSLLYQLISTRIPSFASPNGLHMREQTIDSNTGQIQIDNEHRLLRWDRRPPNDIFLNGFIPRVTNQNLSPVEDTHLLNYLRTNSPSIFVSTTRARYNNLGLEITPWTPHSANNNIIYRYEIFAPGGIDINASFSRNHNPFPNEDEITFPGGIRPEFIRSTYEYHNGEIVRIWINPNFINPSTLNDVSGPSNISKVFWHENHSEGNNMDSKGFILDLDYNQDFDMFAPNGEIPNNNLLNNNSLNVIQNSEYQIKNKKDRNIVVTLDSDYGGSPVESYKNFGFENQKWNIKYDSKKNAYKIYNRETPTLLLSWNSNSSNGEQVIRGYTESGSNNQYWTIEKNVNGFYKFRNLSDPSKILDLKDGNTLNKTPLVVSSENSSSSQEWLIEKTNYQTVKDGTYQVSSKLNENKVIEQISTNKVHIFSNSDKENQVWNLIYNPILKAYKIKSLKYPNYSLAWDSNNTRTIVAATGDYNDQYWLIERNEDNTYIIRNYENRKIVLDLSNGSTTDGNGLLGFEFHGGINQRWIIKPFSFNSIQDGIYQFMTVINQDLIADLTTNNYTIATKTNNYSSNQKWTVTYNDKKRAYKIRNLQHAHLSLAWDSNHSDKIFGATGDYDDQYWIPILQTDGSFIFRNYKNPNKIFGTNGQPINDIPLKAQDVTGQNNQKWYLRHLNSSNNFTGYFNISSKKNFNKIITMNSNKTQAVIFDNIGINNQSWKLKYNDNKNAYQIHILDNFLYFQGGHNIVATMRNVTNDDLRSYWYVEYNFNKDGFIIRNAFDTSYVLDVFQGNFANNTPIITYQNYLNDNQLWNFIPSLGVEPR”, the “soluble on expression in E. coli” value was “soluble”.

“MRGKAMNIQRFIEKRKARGLSQSELAKGICTQVTVSRFEKNGQVPTLKILIQLCNRLELPLGELFPRVGIKQPEILEKMEEAEFFLITSEHDQLQTILKNIPFDEIKDSQLLLEYYYLQGFVMIFQNASLMDCLFTFEKLLFEEQKYTSDIYRLLAFTGIGMAYAKEGEIEKAEFYFNKVFKEIYLYTIQSMEDTWRVLNVVFHCGVFYAEKGDLETSDALLEYAISICSDNHVTYYLARAAFQLAKNALAEEKPQEQILELLQDARAYAKINKNRILLEAIQTLKETILSKGN”: the “soluble on expression in E. coli” value was “not soluble”. With “MGNRLMTSGAQGTNAAVIRGAMRADPNLLTVILPQSLDRQPRESREQLEKVIHLVEHAENDHLSLAEASTLCNQAIVTRCQQLICFAFHDSHTLLETCRYAEDQHHLVTLFYFDLEHHHHHH”, the “soluble on expression in E. coli” value is “soluble”. The value for “MSLSIVEPDLENCFRILIATDNHIGYAEKDPVRGQDSINTFREILELARDHDVDFILLAGDLFHENRPSRTCMHQTIALLREFTLGDKPIEFELLSDPMDGSTPGFSFPAVNYEDPNINIAIPVFSIHGNHDDPQGTGPEGALCALDVLSVSGVLNYFGKSDLVADENAADNPEKGIQIRPVLLRKGTTHVALYGCGNIRDQRMYQELRANKVKMFMPTGGNVPDSEWFNILLVHQNRVRHGPQNYVPENMFDDSMRLVIWGHEHDCRITPESVADKSYFITQPGSSVATSLAPGEAIPKHVGLLSIQGSQFQLEEIPLKTVRPFELDEVVLSYAAEQGAVDLNDRDSITSFLREQVEALILQAKKEGHHHHHH” was “not soluble”. As for “MLLTCRFTAATSRLSACTRSFSIDFSHEKPAPHQLEHVTTRLTETVPLMFRRRMDYTFYRKDVVCDDQIFSVEKRGIEQLMSHFGMIGTLGQVFLPHVEMEMLSVAPVIDEGTVRCRWRVKYVSFTRIIMNPRLLRFDYRMQNLSWFDGYSVLTVDGNGEVYKVTLQKMQQDEQKSLLTSTTEKLKEKLAPSAANN”, the entry is “not soluble”; as for “MGSDKIHHHHHHAMFPERYVSEESAARADTINFRLASAGEAKRLIAAKDSYTANWSPFDIAARLENPEGKREDLVSLAVREVREWTAEEAQQIEQIRKNLNDTIRKYGYRIPFPKEIVLVKTTMKDEGGAGGYTRSNWIALTDATFQRGTEASHTRLLVHETFHILTRLNPGFKKKLYRAIDFNILPKEIEFPEDIRKSRISNPDVSRCDSYATFTIDGKPQNCTMIIYTNRPYTTGKFYQYINVGLIPLDESFKPLRESGKTVIYPLQKATDFFDKVGRNTGYVIDPEEVLADNFAIALLNTPNVHTPELQKKVQELLK”, “not soluble”.

Regarding “MSNKNKSYDYVIIGGGSAGSVLGNRLSEDKDKEVLVLEAGRSDYFWDLFIQMPAALMFPSGNKFYDWIYSTDEEPHMGGRKVAHARGKVLGGSSSINGMIYQRGNPMDYEGWAEPEGMETWDFAHCLPYFKKLEKTYGAAPYDKFRGHDGPIKLKRGPATNPLFQSFFDAGVEAGYHKTPDVNGFRQEGFGPFDSQVHRGRRMSASRAYLHPAMKRKNLTVETRAFVTEIHYEGRRATGVTYKKNGKLHTIDANEVILSGGAFNTPQLLQLSGIGDSEFLKSKGIEPRVHLPGVGENFEDHLEVYIQHKCKEPVSLQPSLDIKRMPFIGLQWIFTRTGAAASNHFEGGGFVRSNNEVDYPNLMFHFLPIAVRYDGQKAAVAHGYQVHVGPMYSNSRGSLKIKSKDPFEKPSIRFNYLSTEEDKKEWVEAIRVARNILSQKAMDPFNGGEISPGPEVQTDEEILDWVRRDGETALHPSCSAKMGPASDPMAVVDPLTMKVHGMENLRVVDASAMPRTTNGNIHAPVLMLAEKAADIIRGRKPLEPQYIDYYKHGVHDENEGAIEVKPYAK”, the “soluble on expression in E. coli” value is “not soluble”.
